Consider five molecules from publication PMC10746679, “Mutations F352A and Y528A in human HSP90α reduce fibronectin association and fibrillogenesis in cell-derived matrices” (Cell Stress & Chaperones, 2023).

The labels stand for the following.
B1: His-HSP90α-R620A (natural protein)
chain: not shown
notes: Heat shock protein HSP 90-alpha, human, point mutant of the full-length His-HSP90α
B2: His-HSP90α-Y528A (natural protein)
chain: not shown
notes: as for B1
B3: His-HSP90α-E353A (natural protein)
chain: not shown
notes: as for B1
B4: His-HSP90α-H450A (natural protein)
chain: not shown
notes: as for B1
B5: His-HSP90α-F352A (natural protein)
chain: not shown
notes: as for B1

The target of this assay is Full-length fibronectin (UniProt P02751 32-2477). The assay is described as follows: ELISA; solid-phase binding assay; FN-FL or FN70 coated on high-binding plates (25 μg/ml by the legend), blocked with 3% BSA in Buffer A; wild type or mutant His-HSP90α at varying concentrations added overnight at 4 °C; detected with anti-HSP90α antibody, HRP secondary, absorbance 450 nm. As to conditions: both partners purified. (In general: An ELISA detects its analyte on a solid surface through an enzyme-linked reagent.)
Chain of Full-length fibronectin (P02751 other isoform, or with tags, fused parts or gaps, chain 1 of 2): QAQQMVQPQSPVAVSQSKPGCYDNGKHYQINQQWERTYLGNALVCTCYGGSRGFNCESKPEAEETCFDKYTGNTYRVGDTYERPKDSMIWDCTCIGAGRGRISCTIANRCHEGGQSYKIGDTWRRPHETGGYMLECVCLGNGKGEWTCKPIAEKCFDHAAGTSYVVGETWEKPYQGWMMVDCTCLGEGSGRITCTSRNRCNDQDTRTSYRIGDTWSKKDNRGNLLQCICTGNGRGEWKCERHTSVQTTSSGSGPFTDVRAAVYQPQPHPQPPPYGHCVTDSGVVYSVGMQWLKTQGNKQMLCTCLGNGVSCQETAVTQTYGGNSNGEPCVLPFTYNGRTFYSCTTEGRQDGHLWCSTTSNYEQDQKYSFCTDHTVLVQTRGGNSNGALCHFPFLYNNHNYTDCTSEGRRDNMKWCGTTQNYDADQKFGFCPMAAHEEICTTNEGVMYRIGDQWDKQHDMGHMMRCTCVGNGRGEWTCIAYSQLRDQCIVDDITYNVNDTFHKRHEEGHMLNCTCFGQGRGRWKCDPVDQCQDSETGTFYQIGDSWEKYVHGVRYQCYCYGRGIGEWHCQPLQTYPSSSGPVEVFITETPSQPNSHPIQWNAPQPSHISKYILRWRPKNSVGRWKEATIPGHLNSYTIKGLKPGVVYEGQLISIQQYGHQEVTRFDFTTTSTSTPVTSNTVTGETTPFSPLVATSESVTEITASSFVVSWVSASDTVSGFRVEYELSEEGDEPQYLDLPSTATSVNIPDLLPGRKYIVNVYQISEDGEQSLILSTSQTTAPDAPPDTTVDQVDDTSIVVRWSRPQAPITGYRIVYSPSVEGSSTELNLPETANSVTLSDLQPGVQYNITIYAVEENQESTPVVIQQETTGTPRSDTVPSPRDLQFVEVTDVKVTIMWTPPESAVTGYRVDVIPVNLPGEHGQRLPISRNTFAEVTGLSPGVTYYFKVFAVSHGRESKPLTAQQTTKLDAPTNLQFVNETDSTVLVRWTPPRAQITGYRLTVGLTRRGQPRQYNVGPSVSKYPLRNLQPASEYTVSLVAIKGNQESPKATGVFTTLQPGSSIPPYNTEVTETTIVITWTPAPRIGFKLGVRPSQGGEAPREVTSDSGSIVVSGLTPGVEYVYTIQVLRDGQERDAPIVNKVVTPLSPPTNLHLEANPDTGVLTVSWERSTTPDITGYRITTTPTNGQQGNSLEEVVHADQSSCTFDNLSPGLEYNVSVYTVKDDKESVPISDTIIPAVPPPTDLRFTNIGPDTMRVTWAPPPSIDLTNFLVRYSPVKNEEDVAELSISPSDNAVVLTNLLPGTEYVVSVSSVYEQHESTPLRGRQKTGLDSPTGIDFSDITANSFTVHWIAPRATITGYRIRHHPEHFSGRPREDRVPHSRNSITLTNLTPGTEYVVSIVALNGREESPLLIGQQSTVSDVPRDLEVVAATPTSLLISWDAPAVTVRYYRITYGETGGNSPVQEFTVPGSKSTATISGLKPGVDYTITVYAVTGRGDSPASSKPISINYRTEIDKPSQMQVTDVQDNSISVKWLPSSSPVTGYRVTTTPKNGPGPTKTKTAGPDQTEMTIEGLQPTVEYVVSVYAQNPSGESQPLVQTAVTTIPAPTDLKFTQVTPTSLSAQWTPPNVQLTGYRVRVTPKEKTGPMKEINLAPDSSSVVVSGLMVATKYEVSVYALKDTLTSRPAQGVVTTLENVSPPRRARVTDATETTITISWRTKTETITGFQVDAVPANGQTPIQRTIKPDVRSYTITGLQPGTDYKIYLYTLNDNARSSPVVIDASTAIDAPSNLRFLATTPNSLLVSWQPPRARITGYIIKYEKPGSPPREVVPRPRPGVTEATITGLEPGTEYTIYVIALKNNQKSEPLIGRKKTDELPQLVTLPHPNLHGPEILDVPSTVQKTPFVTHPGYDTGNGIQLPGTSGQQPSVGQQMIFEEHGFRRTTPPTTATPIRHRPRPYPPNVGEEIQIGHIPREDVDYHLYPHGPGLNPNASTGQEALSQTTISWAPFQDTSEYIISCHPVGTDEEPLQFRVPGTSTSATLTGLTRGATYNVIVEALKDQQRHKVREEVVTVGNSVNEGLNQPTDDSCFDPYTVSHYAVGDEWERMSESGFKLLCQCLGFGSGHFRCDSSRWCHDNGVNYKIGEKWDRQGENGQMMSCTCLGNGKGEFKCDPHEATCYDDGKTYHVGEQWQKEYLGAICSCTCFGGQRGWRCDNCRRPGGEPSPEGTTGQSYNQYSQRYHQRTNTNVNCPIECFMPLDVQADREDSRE
Chain of Full-length fibronectin (P02751 other isoform, or with tags, fused parts or gaps, chain 2 of 2): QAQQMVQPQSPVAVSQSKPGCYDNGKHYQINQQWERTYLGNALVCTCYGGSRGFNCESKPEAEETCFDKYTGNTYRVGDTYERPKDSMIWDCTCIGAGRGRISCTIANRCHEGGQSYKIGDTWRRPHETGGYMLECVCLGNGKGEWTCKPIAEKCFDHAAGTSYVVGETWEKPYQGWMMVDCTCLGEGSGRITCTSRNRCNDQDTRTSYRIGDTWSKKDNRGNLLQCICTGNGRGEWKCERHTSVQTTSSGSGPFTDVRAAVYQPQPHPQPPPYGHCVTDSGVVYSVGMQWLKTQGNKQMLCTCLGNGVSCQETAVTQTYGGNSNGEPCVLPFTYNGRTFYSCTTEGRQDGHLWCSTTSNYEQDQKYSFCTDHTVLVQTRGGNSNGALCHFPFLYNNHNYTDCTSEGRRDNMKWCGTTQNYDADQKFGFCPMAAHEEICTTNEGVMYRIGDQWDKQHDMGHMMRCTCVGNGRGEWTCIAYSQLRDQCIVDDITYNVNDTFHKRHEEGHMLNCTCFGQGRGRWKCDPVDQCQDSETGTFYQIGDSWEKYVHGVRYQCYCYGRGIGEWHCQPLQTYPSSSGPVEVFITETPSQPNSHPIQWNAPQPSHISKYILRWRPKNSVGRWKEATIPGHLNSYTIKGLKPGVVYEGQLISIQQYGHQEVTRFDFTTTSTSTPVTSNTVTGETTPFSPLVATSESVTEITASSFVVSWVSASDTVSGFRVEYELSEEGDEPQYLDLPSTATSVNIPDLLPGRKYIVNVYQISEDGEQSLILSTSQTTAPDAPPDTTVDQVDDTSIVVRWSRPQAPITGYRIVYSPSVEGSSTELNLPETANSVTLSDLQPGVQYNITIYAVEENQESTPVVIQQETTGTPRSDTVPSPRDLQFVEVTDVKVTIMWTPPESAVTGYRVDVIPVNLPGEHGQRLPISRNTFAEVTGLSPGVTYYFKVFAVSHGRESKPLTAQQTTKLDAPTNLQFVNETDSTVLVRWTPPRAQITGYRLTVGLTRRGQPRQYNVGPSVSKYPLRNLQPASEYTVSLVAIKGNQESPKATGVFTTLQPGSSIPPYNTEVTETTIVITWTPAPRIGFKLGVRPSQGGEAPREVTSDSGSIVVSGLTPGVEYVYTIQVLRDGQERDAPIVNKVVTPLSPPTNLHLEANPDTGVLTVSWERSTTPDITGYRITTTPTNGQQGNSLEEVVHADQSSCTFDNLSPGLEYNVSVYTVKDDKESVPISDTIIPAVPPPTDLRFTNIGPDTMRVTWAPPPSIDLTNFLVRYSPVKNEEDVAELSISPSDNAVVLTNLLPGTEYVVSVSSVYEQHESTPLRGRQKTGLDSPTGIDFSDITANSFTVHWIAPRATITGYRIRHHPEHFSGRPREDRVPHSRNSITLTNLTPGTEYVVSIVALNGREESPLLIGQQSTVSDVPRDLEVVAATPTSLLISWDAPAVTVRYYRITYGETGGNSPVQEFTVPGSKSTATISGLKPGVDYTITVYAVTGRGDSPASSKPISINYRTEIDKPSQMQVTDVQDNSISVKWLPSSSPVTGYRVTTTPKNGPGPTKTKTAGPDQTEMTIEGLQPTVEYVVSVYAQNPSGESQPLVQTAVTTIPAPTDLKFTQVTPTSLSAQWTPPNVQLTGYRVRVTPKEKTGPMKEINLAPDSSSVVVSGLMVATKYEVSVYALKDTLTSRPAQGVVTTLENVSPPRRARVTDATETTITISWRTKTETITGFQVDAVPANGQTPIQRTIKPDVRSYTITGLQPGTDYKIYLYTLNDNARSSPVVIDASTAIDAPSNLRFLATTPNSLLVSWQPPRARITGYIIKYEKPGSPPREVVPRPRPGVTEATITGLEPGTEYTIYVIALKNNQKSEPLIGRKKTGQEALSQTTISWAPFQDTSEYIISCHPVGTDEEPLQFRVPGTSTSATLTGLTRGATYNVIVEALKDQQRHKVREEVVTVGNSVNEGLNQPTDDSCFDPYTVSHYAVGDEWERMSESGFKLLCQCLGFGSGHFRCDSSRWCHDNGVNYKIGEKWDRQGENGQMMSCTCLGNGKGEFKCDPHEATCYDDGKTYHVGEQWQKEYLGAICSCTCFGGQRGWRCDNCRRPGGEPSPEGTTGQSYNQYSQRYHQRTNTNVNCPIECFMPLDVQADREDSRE
As to B1, the “percent reduction in binding against wild type His-HSP90α” value is around 25%.

Take B2: the “percent reduction in binding against wild type His-HSP90α” value was around 25%. The figure for B3 is around 25%; for B4 it is around 25%; for B5 it is around 40%.
